Laboratory results published in publication PMC3034218 (Journal of molecular biology, 2004).
One block for each molecule: values may come before it.

B1: τ protein (τ subunit of the clamp-loader), B. subtilis, full-length (natural protein, UniProt P09122 1-563, looked up)
chain: MSYQALYRVFRPQRFEDVVGQEHITKTLQNALLQKKFSHAYLFSGPRGTGKTSAAKIFAKAVNCEHAPVDEPCNECAACKGITNGSISDVIEIDAASNNGVDEIRDIRDKVKFAPSAVTYKVYIIDEVHMLSIGAFNALLKTLEEPPEHCIFILATTEPHKIPLTIISRCQRFDFKRITSQAIVGRMNKIVDAEQLQVEEGSLEIIASAADGGMRDALSLLDQAISFSGDILKVEDALLITGAVSQLYIGKLAKSLHDKNVSDALETLNELLQQGKDPAKLIEDMIFYFRDMLLYKTAPGLEGVLEKVKVDETFRELSEQIPAQALYEMIDILNKSHQEMKWTNHPRIFFEVAVVKICQTSHQSAADLPEVDMLMKKIQQLEQEVERLKTTGIKAAAESPKKEAPRVPKGGKSNYKAPVGRIHEILKEATRPDLDLLRNSWGKLLAHLKQQNKVSHAALLNDSEPVAAGSAAFVLKFKYEIHCKMVAEDNNGVRTNLEQILESMLGKRMDLIGVPEAQWGKIREEFLEDHQQENEGSNEPAEEDPLIAEAKKLVGADLIEIKD
B2: His-tagged DnaB, Bacillus stearothermophilus (enzyme, UniProt Q9X4C9 1-454, looked up)
chain: MSELFSERIPPQSIEAEQAVLGAVFLDPAALVPASEILIPEDFYRAAHQKIFHAMLRVADRGEPVDLVTVTAELAASEQLEEIGGVSYLSELADAVPTAANVEYYARIVEEKSVLRRLIRTATSIAQDGYTREDEIDVLLDEADRKIMEVSQRKHSGAFKNIKDILVQTYDNIEMLHNRDGEITGIPTGFTELDRMTSGFQRSDLIIVAARPSVGKTAFALNIAQNVATKTNENVAIFSLEMSAQQLVMRMLCAEGNINAQNLRTGKLTPEDWGKLTMAMGSLSNAGIYIDDTPSIRVSDIRAKCRRLKQESGLGMIVIDYLQLIQGSGRSKENRQQEVSEISRSLKALARELEVPVIALSQLSRSVEQRQDKRPMMSDIRESGSIEQDADIVAFLYRDDYYNKDSENKNIIEIIIAKQRNGPVGTVQLAFIKEYNKFVNLERRFDEAQIPPGA

How the values were obtained:
[1] = molecular target: τ domain III, B. subtilis (B. subtilis); experiment: SEC
τ (Escherichia coli) = τ (Escherichia coli) (UniProt P06710); settings: cited from earlier work
τ (Escherichia coli), sequence (P06710 2-643): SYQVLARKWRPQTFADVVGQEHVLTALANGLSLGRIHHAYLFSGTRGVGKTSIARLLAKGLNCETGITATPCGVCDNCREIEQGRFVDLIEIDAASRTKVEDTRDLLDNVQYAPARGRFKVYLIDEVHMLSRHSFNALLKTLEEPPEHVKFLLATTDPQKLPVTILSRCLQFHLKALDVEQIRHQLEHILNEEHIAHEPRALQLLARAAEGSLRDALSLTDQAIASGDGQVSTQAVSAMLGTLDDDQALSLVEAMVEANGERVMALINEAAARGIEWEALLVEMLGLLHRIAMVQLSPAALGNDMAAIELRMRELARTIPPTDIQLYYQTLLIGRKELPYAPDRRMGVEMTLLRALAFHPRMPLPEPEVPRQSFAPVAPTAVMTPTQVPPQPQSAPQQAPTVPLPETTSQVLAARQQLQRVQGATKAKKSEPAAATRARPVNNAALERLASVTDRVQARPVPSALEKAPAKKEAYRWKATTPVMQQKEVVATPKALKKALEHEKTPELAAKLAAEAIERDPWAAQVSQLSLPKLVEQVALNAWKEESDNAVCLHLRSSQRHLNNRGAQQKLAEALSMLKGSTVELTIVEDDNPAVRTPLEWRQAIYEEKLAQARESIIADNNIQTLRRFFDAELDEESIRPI

atomic force microscopy = molecular target: the molecule itself; experiment: atomic force microscopy
[2] = molecular target: B1; experiment: SPR

stoichiometry N [1]: 2
Molecule: τ domain III, B. subtilis (domain or fragment)

Molecule: DnaB (from UniProt P0ACB0)
Kd (τ (Escherichia coli)): 4 nM

Molecule: B1
binding result (atomic force microscopy): binds

Molecule: B2
Kd [2]: 2.3 nM
